Substitutions are numbered along the chain they refer to. Names may count otherwise.

In the assay the target is proline-rich tyrosine kinase 2 (Pyk2) (UniProt Q14289 1-1009). The assay can be described thus: pull-down.
Sequence of proline-rich tyrosine kinase 2 (Pyk2) (Q14289 whole entry): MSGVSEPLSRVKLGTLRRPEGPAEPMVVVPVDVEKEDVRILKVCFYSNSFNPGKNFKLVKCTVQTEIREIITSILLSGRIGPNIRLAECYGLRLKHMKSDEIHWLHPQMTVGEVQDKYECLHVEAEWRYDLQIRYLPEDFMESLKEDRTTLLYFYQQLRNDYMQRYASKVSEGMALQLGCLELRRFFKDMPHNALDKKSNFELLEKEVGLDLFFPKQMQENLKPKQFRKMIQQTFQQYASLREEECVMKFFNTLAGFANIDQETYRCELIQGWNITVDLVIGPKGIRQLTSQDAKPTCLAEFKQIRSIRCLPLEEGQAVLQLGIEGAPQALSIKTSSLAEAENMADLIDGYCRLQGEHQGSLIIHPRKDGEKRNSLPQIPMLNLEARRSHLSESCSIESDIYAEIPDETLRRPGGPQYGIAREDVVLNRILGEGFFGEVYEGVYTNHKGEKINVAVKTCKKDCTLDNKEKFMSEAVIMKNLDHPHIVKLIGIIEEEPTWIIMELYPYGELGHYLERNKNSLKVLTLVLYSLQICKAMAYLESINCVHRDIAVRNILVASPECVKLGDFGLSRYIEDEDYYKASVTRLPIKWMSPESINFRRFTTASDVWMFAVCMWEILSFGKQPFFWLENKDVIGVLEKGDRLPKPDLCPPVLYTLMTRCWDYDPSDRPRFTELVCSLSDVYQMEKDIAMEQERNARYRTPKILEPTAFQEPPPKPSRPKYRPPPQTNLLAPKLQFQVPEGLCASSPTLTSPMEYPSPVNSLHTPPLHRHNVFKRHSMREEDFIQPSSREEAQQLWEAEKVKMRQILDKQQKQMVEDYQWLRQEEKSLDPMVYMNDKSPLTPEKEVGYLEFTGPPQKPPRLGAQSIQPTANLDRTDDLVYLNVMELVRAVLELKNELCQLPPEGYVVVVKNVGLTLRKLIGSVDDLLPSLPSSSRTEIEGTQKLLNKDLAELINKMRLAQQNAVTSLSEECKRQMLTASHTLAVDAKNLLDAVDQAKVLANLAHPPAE

B1: GST-CrkII (recombinant chicken CrkII, wild type) (natural protein, UniProt Q04929 1-305, looked up)
chain: MAGQFDSEDRGSWYWGRLSRGDAVSLLQGQRHGTFLVRDSGSIPGDFVLSVSESSRVSHYIVNSLGPAGGRRAGGEGPGAPGLNPTRFRIGDQEFDSLPSLLEFYKIHYLDTTTLIEPVSRSRQNSGVILRQEEVEYVRALFDFNGNDDEDLPFKKGDILKIRDKPEEQWWNAEDMDGKRGMIPVPYVEKCRPSSASVSTLTGGNQDSSHPQPLGGPEPGPYAQPSINTPLPNLQNGPFYARVIQKRVPNAYDKTALALEVGELVKVTKINMSGQWEGECNGKRGHFPFTHVRLLDQQNPDEDFS
As to B1, the Kd was found to be 150 ± 30 nM.

B2: GST-CrkSH2 (CrkII R38K, mutation at the N-terminal SH2 domain) (natural protein, chicken, UniProt Q04929 1-305, looked up)
chain: B1 chain with R38K
As to B2, the Kd is 508 ± 158 nM.

B3: GST-CrkCSH3 (CrkII W276K, mutation at the C-terminal SH3 domain) (natural protein, chicken, UniProt Q04929 1-305, looked up)
chain: B1 chain with W276K
Take B3: binding was characterised by a dissociation constant (Kd) of 134 ± 34 nM.

As usually defined, the Kd is the constant that tells how readily two partners part at equilibrium. Lower therefore signals a tighter complex.

(Values after PMC8693953 (Molecular Biology of the Cell, 2021).)
